assay: soluble on expression in E. coli; label from the status in PepcDB or PDB records

Sequence	soluble on expression in E. coli
MGSDKIHHHHHHMMTQLSAPTLTKDPLTSQDRQIIATIVNQSDYSKECKPEDVVTIWINSDDIVWVKMTHGYARYHKQSFKRAVAEVKASLSAPVERNHKEEKELKQASEKIGLLGDCDWLSLSVQYHSDKVTGHAACYISHKARILTPLAEWDFTIPKWNMPAAICPDCDGHGCGNCGYRGTRAEDLCTPVDGYRLTYVGKTDIQTAHNVYLDGVFLGILFKVRNPDEIWENDPKTYYWQGSNGMKYWSLKEAVESFTQDVVTNKVPQVRQELAVA	not soluble
MGSDKIHHHHHHMMYIGLPQWQHPAWSRLGLNDLADYSRYFSCVEGNTTFYALPSREIVGRWRDMTHDNFRFCFKFPSTISHKAALQNCDSDVSLFYQCLEPIEHRIGQLWLQLPATFGPVLLPVLWRFLDALPQGFSYGVEVRHPLFFTKGDEERALNQGLQQRGINRVILKRHI	not soluble
MGSDKIHHHHHHMNAPAHDNGRLALMLNELRLPTIGRLWPEFAERSDKEGWPATRLLGALLEHELAERAKRRIERHRTESHLDPTKTLATFDFGMVPMVSKAHVTALATGESWLEKGATILLFGPPGAGKSHLGSAIGHALIDAGYRVLFTRTSELVQKLQAARQSLQLPSALAKLDRFDLIILDDLSYARKDQAETSVLFELIAERYERKSLLITANQPFSGWNDVFPDPGMTVAAIDRLVHHSTIFELNVESYRRRKASDKQSARRRQLPDDNYEGGATIMN	not soluble
MGSDKIHHHHHHMNAPLSHSRPMMQPSEDKSLATVFPFAGRVLDETPMLLGEGPTFDPASGTAWWFNILERELHELHLASGRKTVHALPFMGSALAKISDSKQLIASDDGLFLRDTATGVLTLHAELESDLPGNRSNDGRMHPSGALWIGTMGRKAETGAGSIYHVAKGKVTKLFADISIPNSICFSPDGTTGYFVDTKVNRLMRVPLDARTGLPTGKAEVFIDSTGIKGGMDGSVCDAEGHIWNARWGEGAVDRYDTDGNHIARYEVPGKQTTCPAFIGPDASRLLVTSAREHLDDDAITANPQHGLTFELGIEVKGRFEPLYRL	soluble
MGSDKIHHHHHHMNCKELQLSPELTQALGEGDVFSRVMALGGEVFRDVPGRKTVRVQLAGQPYFIKQHFGVGWGEIFKNLLAFKVPIVSANTEKQAIEKLGEIGIATTPLAGFGSRGCSPASRQSFLITHDLGDILSLETLADQWMQSPPEPRFKRRLLMEVATLAARLHDSGLNHRDFYICHICLDLPRLRHGDIHLYLIDLHRVGIRETIRPQDRMKDIAALYFSAMNAGLVTRDYLRFLRRYRGKPIRQVMREERDFWQQVQARAIKLYIKLHKVEPGLHQIGGMIG	not soluble
MGSDKIHHHHHHMNDEVSKNISLSDFEPYFKEDYFREDYFYFDNAVNSPETSDRQAGVIWNLLSLGQGSSVLELGCGYGRITNRLAKKGAHVVGLDISPILLKEAETDAAERGVKVEYVLGDMRSLPWRDRFDAAFLWYTTFGYFDDADNERVLREAASSLRKGGRLLIDHPNRIDFLRHKSPVCYVTQRNNDVRIDMFSNDVLSDRSNLERLIVRDGCVRRTHLSFRQYGVSEYVRMLRSAGFETVEAYGQEGEAFTSDSSRLVVVACK	not soluble
MGSDKIHHHHHHMNEILKNSPISRAKLSEITGLNKSTISSQVNTLLENKFIFEIGEGQSRGGRRPVMLVFNKNAGYSIGIDVGVDYINGILTDLEGNIVLEKSYNLPIPSSDEVKEILFTIIKYFVSHMPESPYGLIGIGICVPGLVDKQQKIIFMPNSKWEIKDLKAVIETEFNVPVFIENEANAGAYGEKVFGNTKNFSNIIYVSINVGIGIGIIINNELYKGINGFSGEMGHMAIDFNGPKCSCGNRGCWELYASEKALLNSFFKDGKAISCHEIIELAHKNDVEVLNALQNFGFYIGIGLTNILNTFDAEAVILRNHIIESNPIVLNAIKNAVSSRVYSQIEGTYELLPSSLGKNAPALGTTSIVIEHFLNK	not soluble
MGSDKIHHHHHHMNEKELAGWFPQAKLSQEADAQSLALGDGRYLNLADADLTERERYLLSLLSHPQEQKPSSPWQSYLHGQSSLPQAVEAIQFIHVHLWSQKDAQLDAWQTMMTDLLPSQLAQVQLSSQDYLFIIEQSRWTDYQTILADTLSALEFDFGLRLTFLVGQVWSRQLADRWSQLYQAEAALFAHWRAHYHQSTVLSFSQLFLWGQGRAGLEFGMIKASMLQLIDQQDMQDIILALWTEGAVVTKTAQILYIHRNTLQYRLDKWQDLTGLQLKDLTDLSFCYQVLLDRLF	not soluble
MGSDKIHHHHHHMNELRNDLLRYLTISATDEEWGIVVTTVGYQFIPPGCAYPLSRHPEKYNFKPQTGRILNEYQLVYITKGSGYFSSQSCKSQKINAGTMILLFPGEWHSYYPDRETGWDEYWVGFRGIHIDKRVEKKFFTKEEPLHRIGLSATIVGLYEDILKFASEEKSGYQQMISSIVLHILGSVYYKEKNNSFTNTYVVDKINEARILMKENIEDPLSPEEIAARLGLGYSWFRRMFKEYTGVSPAQYQLQQKLLRAKELLTSTPLTISEIAYSLHFENAGQFSTFFKKKEGVTPSEFRDRTH	not soluble
MGSDKIHHHHHHMNEMWLHRADLAESAINERHASRLWMLPRTNLAVVAWPPTAKERLFYRWHYWWQAHYLDCLIDAASRRTTKARKQRIRDTIVGIRLRNLGRLTKNNYYDDKSWLALALDRERRLNKRAKREYLRVLEGNIAAGQDDIQGVLPWRVGEHFFNVPTNGPAAIMLARNGEVEQARKLVDWIFDNLINDKGLVMDGLRMSMRGPEIVDPVYPYCQGVVIGACIEIAEALPFEESVQYLAHARAVIHAVAKEMATPEGVINAATGDGDGGLFKGILMRYLADAAVRLPEDGPANIATKKIAKRLVMASAESVWEHRLEVDGLPVFATDWCDDARLPHNYGVGGSALSDIVRVVRIDERDLSVQLSGWMLLEAAARVSLVD	not soluble
MGSDKIHHHHHHMNFDEKPYLRSIALKHQGLAEAKVTLIDGEFHDESAVRVQDCYPFTIPALAGFDSLDFDADVTFFVGENGSGKSTLLEAIAVAMGLNAEGGNKNTHFATKVSHSNLGYYLKTIKSFKKPKDSYFLRAESFYNLASYMEEDGREAYLGSYGGTSLHQQSHGESFMATLLHKFRGQGLYLMDEPEAALSPSRQLAALSAIHQLVENKSQFIIATHSPILLAYPRAKIYQFSNQGIVQITYQETEHYQITKAFLNQPEKLLASLGVG	not soluble
MGSDKIHHHHHHMNIDEAKQLANYFSDGSPGYILEFNNLEWDLYTKKIVGFGIQERFGGSKGNSFKEFLVSEDISDHLKFKLIYSLNETMKQIASIRQFENPSSYKSPKMNPLVTLLIEEAYHKKDSARLLNGTKFSKEVNLEYIQQLPTRISKDIQNKDFDSVLTKSNTMIDEVLKYIIENTKGKSIDNNTVRSKDLRNQAFERLNIKIDKDMDKRIKALVGALNTLSDKILEMRNSQGDAHAQGSRRIVINEEEAILTANSAMILCEYLFRKYEKRKRFSDAKES	not soluble
MGSDKIHHHHHHMNIINFIKNYLSTPMSSLTFAPAHQLARMIRNREVSAVEVLNAYLAQIAKHNSKLNAICTLDEENAYLRARLADEALARGENWGALHGVPITIKDIFETAGLLTTAGYIPLKDYVPQQDATVVARLRTAGAVILGKTNMAELAGDYQSTNSLFPQVNNPWNLDYTAGGSSGGSAAAVAAGLSSLDLGNDIAGSVRQPAHFCGVYGLKPTDRRISTAGQIPEVPGMPVCLRQMMTVGCFARSLEDIRLCFSLIAGSDLRRPDVPPIPLDNPSGKSLQNLKIAWLDEWVEVPVASEIQVAMTAIAHTLTQAGVQIEPWLPKNFDLSKTLNLYGRMAAYINIYAQPVDRYNLHRSWQQIFRTATQGEKELRKLGDFSRLLPDLLNPRLKGYFEVLTERDCFTAQMDEALEPWDAWLTPVAATPAFTHRPAWSAIEIDGRPYPHAVANGAYTMPFNLSGHPAVVIPIGHTQDGLPIGMQVVGKRWREMELLAIAQELDKVINAFRSPFEII	not soluble
MGSDKIHHHHHHMNIRKYIWAYVVAMALICPGVKAQEQITIGVIQYDVRDIDKSFKALHEQGFGSCELNYSEKRFTKELAEQVKAASEKHRIRVTTLVGVPGSKSTWNFRQGPATIGLVPIDERFEKLDLYRKMIDFCVQAGIPAMHSHFGFIPEDPSSAQYKDFIEVMRGLATYAKERNVLIYFETGQETPITLIRAIRDIGTGNLFINCDLANLLMYGKSNSLDAVKLFGNLIKEFHAKDGKYPDPNNPYELGHEVPIPTGDVDFPAVIAELKKQGFKGAITIECELNGTRHDYVIQTRKYLQELLDR	not soluble
MGSDKIHHHHHHMNIRTLAAYMVFQCVFLISWSQDLKRVQKTITTLTSKTYHGRGAASNGDGLAAAYLEKQYKETGLKPVDTNFLQPFTYAINTFPGKMKLKSNLGVFKPGIDYIVKSTSGPGKGTCDVYLVDTLIFTDDGKLKEFLQLDVTALVVVYPKKYFKEFTASTPDLLKQLYSAAAIIELQDKKLTMALADQSFGTPVFEVLTTSFSPDIKTISFEIENELIKKHQANNVIGMIEGRSKKDSFIVLTAHYDHLGTLGRKAYFPGANDNASGVSMLLEFAHYYMENPPEYSMLFIAFAGEESGLLGSSYFVAHPLVPLAGIHFLINLDLLGTGDDGIMVVNGSVFKPAYNRLIAINEEKKLLPAIKMRGEAANSDHYPFYKKGVPCFFIYTLGGVAAYHDVQDVAKTLPLTKYREVFQLIVLFNGEK	not soluble
MGSDKIHHHHHHMNKETQAMMLVPQGSIEGYIHAAYDYPMLTAEEEKELAERLYYHQDLDAAKTLILSHLRFVIHVARGYSGYGLPQADLIQEGNIGLMKAVKRFNPEVGVRLVSFAVHWIKAEIHEYVLRNWRIVKVATTKAQRKLFFNLRKTKQRLGWFSDKEVDMVANELGVSKEDVLEMESRMTGSDVGFDLPVDDDESYAPALYLEDKSSNFAAELENENFETQAADQVANALAELDERSQDIIKSRWLDDEKATLHDLAAKYNISAERVRQLETNALKKLKSAVSF	not soluble
MGSDKIHHHHHHMNLLDHLRRMAGNNLWSNDRLYRAVLALKPGEFEAERTSFFPSIKATLNHVLAVDYLYLDFLEEGGVGAAAHDDFVPFDEPQPLFAAQMAADRRLIAFCDGLSEADLDRRVITDRRADGMIPERIGDILAHVFLHDIHHRGQVHAMLSGTSVVPPQLDEFLLDYDAKLRKAEVERLGL	not soluble
MGSDKIHHHHHHMNLRRDALQILKETSRTFYIPISLLPPGLQEAVASAYLCMRAIDEIEDHPEIDNATKAKLLRSISLTLQAGVDGFAVEAFFTGFNGYENTLEEVTLRIREWLLLAPETIAPRIWDATAAMSDRMAYWSERNWKIYTESDLDRYTFGVAGAVGLLLSDLWTWYDGTQTNRTQAIGFGRGLQAVNILRNHTEDLRRGVDFFPEGWSAENMQEYARRNLALAEAYTKGLPTGPALDFCQIPLTLANGTLDALANGKEKLSRSDVFALIEQIISVNMKAS	not soluble
MGSDKIHHHHHHMNNKERLLYVQEILQKETDEENELTLEQIMTKLHAVKGTEVNKKTLRDDLNALKDSGLFPISVNQEKNGVEKTYQHRTKLFTIQELRLLADALTTASFISKEETEQMINKLKKLTSHRLADHLDNRLLVPPDRGNREVQELIKTVHLLHDVIKHGEVIRYQYGQYNLTKEFTLRENGRFYTLKSYALIWDDQRYYLIGEDEDEDLIRYERVDQMYHVERTGAFFTWPEKFDLMEWLRTHSSVMTEQKEDLQLECHLDSLQDVLDCFGLDVTIQSLTDERFLLATKAVIDKGLMDWLFSLGGKVKVIHPPKLAEEIQREATAIIDQYRLANS	not soluble
MGSDKIHHHHHHMNQRMKSHFQYSTLENIPKAFDILKDPPKKLYCVGDTKLLDTPLKVAIIGTRRPTPYSKQHTITLARELAKNGAVIVSGGALGVDIIAQENALPKTIMLSPCSLDFIYPTNNHKVIQEIAQNGLILSEYEKDFMPIKGSFLARNRLVIALSDVVIIPQADLKSGSMSSARLAQKYQKPLFVLPQRLNESDGTNELLEKGQAQGIFNIQNFINTLLKDYHLKEMPEMEDEFLEYCAKNPSYEEAYLKFGDKLLEYELLGKIKRINHIVVLA	not soluble

Reference: the DeepSol protein solubility set
